Assay results reported in patent publication US20050113304A1.

Target: Botulinum toxin B (UniProt P10844)
Experiment: cell-based or functional assay

Work on Buforin I (peptide) yielded an inhibition of BttxB endoprotease activity (cleavage of VAMP2 55-94, RP-HPLC) of 1000 nM.

In the case of Buforin II (peptide), the inhibition of BttxB activity relative to B-I (% as effective as B-I) is reported as 25.
